Results taken from patent US20100086943.

Tested on: fusion protein comprising the c-myc tag, a generic substrate recognized by the serine/threonine kinases and the FLAG tag, expressed from the pSEMS plasmid (Snaptag)

kinase Akt1 (expressed from Akt1-pcDNA 3.1)
phosphorylation of the substrate measured by TR-FRET (delta F): The co-transfection with the plasmid coding for the protein substrate and the plasmid coding for the kinase Akt1 makes it possible to increase the quantity of protein substrate phosphorylated specifically by Akt1

Cam kinase II (expressed from CamKII delta-pcDNA 3.1)
phosphorylation of the substrate measured by TR-FRET after activation by ionomycin: in the presence of ionomycin, the signal measured is much greater than in its absence
